Measured values reported in publication PMC10229650 (Nature Communications, 2023).

B1: anti-JAG1.b70 mouse immunoglobulin G2a (mIgG2a), WT (antibody, V domains shown)
VH: EVQLVESGGGLVQPGGSLRLSCAASGFTFSNYGIHWVRQAPGKGLEWVGWITPDGGYTDYADSVKGRFTISADTSKNTAYLQMNSLRAEDTAVYYCARAGTLFAYWGQGTLVTVSS
VL: DIQMTQSPSSLSASVGDRVTITCRASQDVSTAVAWYQQKPGKAPKLLIYSASFLYSGVPSRFSGSGSGTDFTLTISSLQPEDFATYYCQQYYTTATTFGQGTKVEIK
notes: variable heavy domain of anti-JAG1.b70; constant domains of the mouse IgG2a heavy chain, wild type; variable light domain of anti-JAG1.b70; constant domain of the murine kappa light chain; Phage-display selected antibody in mIgG2a format; A batch provided by Genentech was used in animals; WT and PGLALA variants for the ELISAs were produced in HEK293E; The constant domains of the Fab in PDB 5BO1 …
B2: anti-JAG1.b70 mIgG2a, PGLALA (P329G, L234A, L235A) (antibody, V domains shown)
VH: B1 VH
VL: B1 VL
notes: variable heavy domain as in the heavy chain of m1; constant domains of the mouse IgG2a heavy chain with PGLALA in the CH2 domain; variable light domain as in the light chain of m1; constant domain of the murine kappa light chain; also called PGLALA-engineered anti-JAG1; effector-negative anti-JAG1; source: HEK293E, transient co-transfection, purified (anti-murine kLC CaptureSelect, SEC)

Biological target: T1, recombinant, soluble murine Jagged1 (mouse, UniProt Q9QXX0)
T1 construct: Jagged1, mouse, recombinant soluble form; also called recombinant mouse Jagged1
Assay: ELISA; plates coated with 500 ng/mL recombinant soluble murine Jagged1 in PBS; antibodies titrated 2000-15.63 ng/mL in PBSTM, 1.5 h at RT; detected with ALP-conjugated goat anti-murine Fc
Settings: both partners purified

T1 sequence (Q9QXX0 34-1067): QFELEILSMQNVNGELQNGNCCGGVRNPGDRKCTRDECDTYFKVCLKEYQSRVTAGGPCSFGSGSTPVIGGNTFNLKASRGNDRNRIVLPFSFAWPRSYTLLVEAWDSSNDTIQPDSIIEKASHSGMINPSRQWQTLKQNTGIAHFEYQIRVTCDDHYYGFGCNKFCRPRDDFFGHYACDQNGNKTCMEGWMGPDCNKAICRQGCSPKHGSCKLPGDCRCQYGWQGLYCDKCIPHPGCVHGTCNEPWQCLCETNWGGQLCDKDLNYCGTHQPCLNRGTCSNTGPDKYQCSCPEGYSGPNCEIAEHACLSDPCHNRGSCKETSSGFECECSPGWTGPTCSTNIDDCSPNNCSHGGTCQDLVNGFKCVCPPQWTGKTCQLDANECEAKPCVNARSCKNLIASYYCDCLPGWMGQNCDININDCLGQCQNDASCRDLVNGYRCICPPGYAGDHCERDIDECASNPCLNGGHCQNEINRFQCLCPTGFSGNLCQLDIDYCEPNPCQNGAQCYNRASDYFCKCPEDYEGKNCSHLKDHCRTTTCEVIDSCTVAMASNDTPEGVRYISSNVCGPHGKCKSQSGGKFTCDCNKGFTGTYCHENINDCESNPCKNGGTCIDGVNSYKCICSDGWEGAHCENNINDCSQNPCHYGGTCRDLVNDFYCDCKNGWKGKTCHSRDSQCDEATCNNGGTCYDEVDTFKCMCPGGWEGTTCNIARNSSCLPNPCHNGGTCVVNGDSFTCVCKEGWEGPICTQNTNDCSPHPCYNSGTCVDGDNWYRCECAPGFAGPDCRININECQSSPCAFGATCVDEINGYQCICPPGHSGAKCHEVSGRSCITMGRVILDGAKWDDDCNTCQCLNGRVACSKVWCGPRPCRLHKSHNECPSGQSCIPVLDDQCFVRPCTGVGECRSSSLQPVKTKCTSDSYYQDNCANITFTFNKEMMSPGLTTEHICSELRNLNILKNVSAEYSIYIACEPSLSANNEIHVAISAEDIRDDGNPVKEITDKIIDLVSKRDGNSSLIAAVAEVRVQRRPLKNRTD

Binder	binding result
B1	binds
B2	binds
